Reference: article PMC11901838

Molecular target: Human thyroid-stimulating hormone receptor (human) (UniProt P16473)
Sequence of UniProt P16473 (P16473 21-764): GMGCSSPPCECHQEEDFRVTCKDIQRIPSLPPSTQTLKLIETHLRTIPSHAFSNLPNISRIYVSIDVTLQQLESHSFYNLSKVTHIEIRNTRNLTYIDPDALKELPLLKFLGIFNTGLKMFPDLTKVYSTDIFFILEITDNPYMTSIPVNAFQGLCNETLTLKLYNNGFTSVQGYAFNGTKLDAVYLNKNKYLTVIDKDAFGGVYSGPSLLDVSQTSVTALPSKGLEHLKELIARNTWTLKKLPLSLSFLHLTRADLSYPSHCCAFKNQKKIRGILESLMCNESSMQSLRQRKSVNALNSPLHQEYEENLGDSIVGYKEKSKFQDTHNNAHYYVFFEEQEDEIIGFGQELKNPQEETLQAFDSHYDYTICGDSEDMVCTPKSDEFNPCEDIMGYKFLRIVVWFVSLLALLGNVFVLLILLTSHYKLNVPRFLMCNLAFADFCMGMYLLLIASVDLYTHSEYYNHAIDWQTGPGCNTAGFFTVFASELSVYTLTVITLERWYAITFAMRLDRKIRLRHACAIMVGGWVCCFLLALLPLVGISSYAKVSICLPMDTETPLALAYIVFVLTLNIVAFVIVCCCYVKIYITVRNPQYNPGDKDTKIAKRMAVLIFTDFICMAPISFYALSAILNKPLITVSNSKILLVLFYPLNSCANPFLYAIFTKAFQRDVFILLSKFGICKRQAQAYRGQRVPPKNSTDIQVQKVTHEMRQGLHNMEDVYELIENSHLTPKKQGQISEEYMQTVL

EC50 of the NFAT-driven luciferase reporter (RLU) in HEK293-TSHR/NFAT-Luc cells seeded at 0.8 × 10^5 cells/mL, serially diluted rhTSH: 0.32
Substance: Recombinant human thyroid-stimulating hormone (from UniProt P01215 25-116; P01222 21-132) (ligand)
